Read-outs that look alike come from different tables or passages of the source. Values belong to the binder of their own block, whether it stands above or below them. No end group written: not given here. *: point of attachment. Oxazole(5-CO) = O=C(c1cnco1)*; 2Furoyl = O=C(c1ccco1)*; Cbz = O=C(OCc1ccccc1)*
Columns and labels:
[1] = target: T1, Gas41 YEATS domain, His-Gas41 (15-159) (human, UniProt O95619 15-159); assay: photo-cross-linking competition vs photoaffinity probe, in-gel fluorescence
T1 construct: Expressed in E. coli; not shown: His tag

[2] = target: T2, YEATS2 YEATS domain, His-SUMO-YEATS2 (201-332) (human, UniProt Q9ULM3 201-332); assay: as above
T2 construct: range 201-332; Expressed in E. coli; also called YEATS2 domain; not shown: His-SUMO tag
T2 sequence (looked up): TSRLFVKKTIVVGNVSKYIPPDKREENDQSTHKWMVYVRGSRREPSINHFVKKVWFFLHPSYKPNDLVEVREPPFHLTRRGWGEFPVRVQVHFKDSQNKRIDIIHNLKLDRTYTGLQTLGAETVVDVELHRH

[3] = target: T3, AF9 YEATS domain, His-AF9 (1-138) (human, UniProt P42568 1-138); assay: as above
T3 construct: Expressed in E. coli; not shown: His tag
T3 sequence (looked up): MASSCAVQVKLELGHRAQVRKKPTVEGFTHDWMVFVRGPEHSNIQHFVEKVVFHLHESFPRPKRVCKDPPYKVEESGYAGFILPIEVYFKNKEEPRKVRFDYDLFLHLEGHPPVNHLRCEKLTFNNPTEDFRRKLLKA

[4] = target: T3, AF9 YEATS domain, His-AF9 (1-138); assay: method and target not named in the sentence (AF9 YEATS by context)
[5] = target: T1, Gas41 YEATS domain, His-Gas41 (15-159); assay: photo-cross-linking competition vs photoaffinity probe, in-gel fluorescence; remark: listed apart in the source
[6] = target: T2, YEATS2 YEATS domain, His-SUMO-YEATS2 …; assay: as above; remark: listed apart in the source
[7] = target: T3, AF9 YEATS domain, His-AF9 (1-138); assay: as above; remark: listed apart in the source
[8] = target: T2, YEATS2 YEATS domain, His-SUMO-YEATS2 …; assay: photo-cross-linking-based competition against the photoaffinity probe on the YEATS2 YEATS domain, in-gel fluorescence
[9] = target: T4, ENL YEATS domain, His-SUMO-ENL (1-138) (human, UniProt Q03111 1-138); assay: photo-cross-linking competition vs photoaffinity probe, in-gel fluorescence
T4 construct: Expressed in E. coli; not shown: His-SUMO tag
T4 sequence (looked up): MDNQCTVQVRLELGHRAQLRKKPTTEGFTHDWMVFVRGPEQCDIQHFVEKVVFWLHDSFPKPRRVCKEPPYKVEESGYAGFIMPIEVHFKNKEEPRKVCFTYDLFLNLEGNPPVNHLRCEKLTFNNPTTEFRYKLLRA

[10] = target: T4, ENL YEATS domain, His-SUMO-ENL (1-138); assay: as above; remark: listed apart in the source
[11] = target: T3, AF9 YEATS domain, His-AF9 (1-138); assay: photo-cross-linking-based competition against the photoaffinity probe (probe 1) on AF9 YEATS domain, in-gel fluorescence

T1 sequence (O95619 15-159 limits assumed): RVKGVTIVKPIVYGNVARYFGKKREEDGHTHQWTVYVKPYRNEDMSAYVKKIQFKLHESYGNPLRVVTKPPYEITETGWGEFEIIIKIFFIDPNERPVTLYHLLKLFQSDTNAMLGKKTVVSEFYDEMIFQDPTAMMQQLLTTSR

IC50 [1]: 14.5 µM
IC50 [2]: 98.7 µM
IC50 [3]: 0.24 µM
Kd [4]: 0.131 µM
IC50 [5]: 14.5 µM
IC50 [6]: 98.7 µM
IC50 [7]: 0.24 µM
Binder: Cbz-QTARK(Oxazole(5-CO))-NH2 (also called 4.13a) [compound 27 (XL-13a)]

IC50 [8]: 42.2 µM
IC50 [1]: 123 µM
IC50 [2]: 42.4 µM
IC50 [9]: 1.3 µM
IC50 [3]: 0.26 µM
Kd [4]: 0.33 µM
IC50 [5]: 123 µM
IC50 [6]: 42.4 µM
IC50 [10]: 1.3 µM
IC50 [7]: 0.26 µM
B1: compound 26 (XL-07j) (peptide)
peptide: Cbz-QTARK(2Furoyl)-NH2
SMILES: C[C@H](NC(=O)[C@@H](NC(=O)[C@H](CCC(N)=O)NC(=O)OCc1ccccc1)[C@@H](C)O)C(=O)N[C@@H](CCCNC(=N)N)C(=O)N[C@@H](CCCCNC(=O)c1ccco1)C(N)=O
notes: also called 4.7j

IC50 [3]: 27.9 µM
IC50 [11]: 31.8 µM
B2: compound 1 (XL-01) (peptide)
peptide: KQTARKSTGG-NH2
modifications: not fully specified (residue 6); also: Lys6 acylated with group R, structure drawing only
notes: also called 4.1

— patent US20210277061A1 (UNIVERSITY OF HONG KONG, published 2021)
